Common to all, as to experiment: purified protein
Assay type in all cases: biochemical, Flavobacterium johnsoniae

Substrate in series [1]: COC(=O)/C=C/c1ccc(O)cc1
To be noted: pH 6.5, 25 °C, 100 mM buffer.

Substrate in series [2]: COC(=O)/C=C/c1ccc(O)c(OC)c1
The conditions noted are these: pH 6.5, 25 °C, 100 mM buffer.

Substrate in series [3]: CC(=O)Oc1ccc2c(C)cc(=O)oc2c1
The conditions noted are these: 100 mM buffer.

Substrate in series [4]: COC(=O)/C=C/c1cc(OC)c(O)c(OC)c1
To be noted: pH 6.5, 25 °C, 100 mM buffer.

Substrate in series [5]: COC(=O)/C=C/c1ccc(O)c(O)c1
The conditions noted are these: pH 6.5, 25 °C, 100 mM buffer.

B1: FjCE1 (Flavobacterium johnsoniae UW101) (protein)
chain: FDEVNANAPQGKVEIVSYESKTVGSTRKATIYTPPGFNKNKKYPVLYLLHGIGGDEKEWLNGGQPNVILDNLYADGKLEPMIVVMPNGRAMKDDRAGGDIMAADKVKAFSVFEKDLLNDLIPFIEKKYPVLKDREHRAIAGLSMGGGQSLNFGLGNLDQFAWVGAFSAAPNTKIGTELLAKPEEAKKKLKLLWISCGDKDWLIENSTRTHDYLAKNNVPHIYYIEPGVHDFKVWKNGLYMFSQFLFKEVDPLVFQKYSISAYTIEK
notes: domain borders not in main text
Broadly, the Km is the substrate concentration at which the rate is half of its maximum. The term kcat denotes the number of substrate molecules converted per active site and unit of time at saturation. Broadly, the kcat/Km is the second-order rate constant that governs catalysis at low substrate concentration. As for B1, the Km was found to be 390 ± 120 µM in “purified protein [1]”; 110 ± 20 µM in the series “purified protein [2]”; 70 ± 10 µM in the series “purified protein [3]” (pH 6.5, 25 °C); 140 ± 20 µM in the series “purified protein [4]”; 340 ± 100 µM in the series “purified protein [5]”. The kcat in “purified protein [1]” was determined as 1.5 ± 0.3 s⁻¹; in the series “purified protein [2]” it was 2.5 ± 0.2 s⁻¹; in the series “purified protein [3]” (pH 6.5, 25 °C) it was 0.61 ± 0.03 s⁻¹; in the series “purified protein [4]”, 1.8 ± 0.1 s⁻¹; in the series “purified protein [5]”, 0.83 ± 0.14 s⁻¹. The kcat/Km in the series “purified protein [1]” was 3900 ± 1400 M⁻¹ s⁻¹; in “purified protein [2]”, 23100 ± 4500 M⁻¹ s⁻¹; in “purified protein [3]” (pH 6.5, 25 °C), 8700 ± 1700 M⁻¹ s⁻¹; in the series “purified protein [4]”, 13000 ± 2200 M⁻¹ s⁻¹; in the series “purified protein [5]”, 2700 ± 1000 M⁻¹ s⁻¹.

B2: FjCE6 (Flavobacterium johnsoniae UW101) (protein)
chain: SQDPNFHVYLSFGQSNMEGFAKIEPQDKTGVNERFQVLSAVDCPEMGREKGKWYTAVPPLCRCTTGLTPMDYFGRTMISNLPQNIKVGVVNVAVGGCKIELFDKNNFESYVANSPDWLKNIVKQYDGNPYGRLVEMAKIAQKKGVIKGILLHQGESNTGDTLWPQKVKIVYDNLIKDLNLDPKKVPLLSGETVNEDQNGKCGSMNKIIAKLPQVLPNSYIISSKGCKADADFLHFSPEGYRELGKRYADKMLSLSGYMLFNGKE
notes: as for B1
B2: in the series “purified protein [3]” (pH 8, 25 °C), the Km is 150 ± 20 µM, the kcat was 6.7 ± 0.2 s⁻¹ and the specificity constant (kcat/Km) was 43400 ± 4400 M⁻¹ s⁻¹.

Source of the values: PMC7110780, “Multimodular fused acetyl–feruloyl esterases from soil and gut Bacteroidetes improve xylanase depolymerization of recalcitrant biomass” (Biotechnology for Biofuels, 2020).
